Reference: patent US20150344570A1 (published 2015)

T1: FcγRIIa R extracellular domain with C-terminal His tag (human, UniProt P12318 34-217)
T1 construct: extracellular domain; Soluble receptor, R131 allotype; also called FcgRIIa R; FcgRIIaR; not shown: His tag at the C terminus
T1 sequence (looked up): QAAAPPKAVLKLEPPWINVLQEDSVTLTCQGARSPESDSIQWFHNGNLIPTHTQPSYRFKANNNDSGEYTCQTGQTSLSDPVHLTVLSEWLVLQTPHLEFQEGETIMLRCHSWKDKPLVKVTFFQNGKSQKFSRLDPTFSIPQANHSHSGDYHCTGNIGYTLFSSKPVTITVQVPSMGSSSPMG

T2: FcγRIIa H extracellular domain with C-terminal His tag (human, UniProt P12318 34-217)
T2 construct: extracellular domain; Soluble receptor, H131 allotype; also called FcgRIIa H; FcgRIIaH; not shown: His tag at the C terminus
T2 sequence (looked up): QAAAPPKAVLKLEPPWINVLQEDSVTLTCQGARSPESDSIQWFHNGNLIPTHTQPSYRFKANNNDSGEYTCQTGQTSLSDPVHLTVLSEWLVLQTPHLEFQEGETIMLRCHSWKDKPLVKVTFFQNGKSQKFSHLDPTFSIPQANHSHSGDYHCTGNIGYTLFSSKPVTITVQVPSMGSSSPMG

T3: FcγRIIb extracellular domain with C-terminal His tag (human, UniProt P31994 43-217)
T3 construct: extracellular domain; also called FcgRIIb; CD32B; not shown: His tag at the C terminus
T3 sequence (looked up): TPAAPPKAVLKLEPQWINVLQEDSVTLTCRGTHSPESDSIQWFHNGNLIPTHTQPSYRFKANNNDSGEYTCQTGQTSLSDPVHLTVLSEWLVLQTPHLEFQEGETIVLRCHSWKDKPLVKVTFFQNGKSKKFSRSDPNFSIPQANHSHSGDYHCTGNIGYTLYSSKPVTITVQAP


Columns and labels:
Assay in all cases: SPR (Biacore); KD of H240-Kn061/H240-Hl071/L73-k0 divided by KD of the variant
[1] = target: T1, FcγRIIa R extracellular domain with …
[2] = target: T2, FcγRIIa H extracellular domain with …
[3] = target: T3, FcγRIIb extracellular domain with …
[4] = target: T4, FcγRIIIa F extracellular domain with C-terminal His tag (human, UniProt P08637 17-208)
T4 construct: extracellular domain; Soluble receptor, F158 allotype; also called FcgRIIIa F; FcgRIIIaF; not shown: His tag at the C terminus
T4 sequence (P08637 17-208): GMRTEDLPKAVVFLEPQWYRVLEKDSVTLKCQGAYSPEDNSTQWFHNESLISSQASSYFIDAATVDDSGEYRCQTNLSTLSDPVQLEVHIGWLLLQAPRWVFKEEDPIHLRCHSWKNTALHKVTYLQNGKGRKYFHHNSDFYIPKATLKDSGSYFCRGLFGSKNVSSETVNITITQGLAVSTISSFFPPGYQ

[5] = target: T5, FcγRIIIa V extracellular domain with C-terminal His tag (human, UniProt P08637 17-208)
T5 construct: extracellular domain; Soluble receptor, V158 allotype; also called FcgRIIIa V; FcgRIIIaV; not shown: His tag at the C terminus
T5 sequence (P08637 17-208 F176V): as the sequence (P08637 17-208) above, with F160V counted along it

relative KD [1]	relative KD [2]	relative KD [3]	relative KD [4]	relative KD [5]	Binder
1.2	1.2	0.8	1.3	1.3	H240-Kn061/H240-Hl071/L73-k0 variant with F241L introduced into H chain H240-Hl071 (antibody, human IgG1, kappa, Point variant of the heterodimerized anti-epiregulin IgG1 template; also called H240-Hl071 F241L) heavy 1: QDQLVQSGAEVKKPGASVKVSCKASGFNIKDTYIQWVRQAPGQGLEWMGRIDPLRKQTKYREKFEGRVTITADTSTNTAYMELSSLRSEDTAVYYCVRSGREFDYWGQGTLVTVSSASTKGPSVFPLAPSSKSTSGGTAALGCLVKDYFPEPVTVSWNSGALTSGVHTFPAVLQSSGLYSLSSVVTVPSSSLGTQTYICNVNHKPSNTKVDKKVEPKSCDKTHTCPPCPAPEYYWGPSVFLFPPKPKDTLMISRTPEVTCVVVDVSDEDPEVKFNWYVDGVEVHNAKTKPREEQYNATYRVVSVLTVLHQDWLNGKEYKCKVSNKALPAPIEKTISKAKGQPREPQVCTLPPSRDELTKNQVSLWCLVKGFYPSDIAVEWESNGQPENNYKTTPPVLDSDGSFFLYSKLTVDKSRWQQGNVFSCSVMHEALHNHYTQKSLSLSP heavy 2: QDQLVQSGAEVKKPGASVKVSCKASGFNIKDTYIQWVRQAPGQGLEWMGRIDPLRKQTKYREKFEGRVTITADTSTNTAYMELSSLRSEDTAVYYCVRSGREFDYWGQGTLVTVSSASTKGPSVFPLAPSSKSTSGGTAALGCLVKDYFPEPVTVSWNSGALTSGVHTFPAVLQSSGLYSLSSVVTVPSSSLGTQTYICNVNHKPSNTKVDKKVEPKSCDKTHTCPPCPAPELLGGPSVLLFPPKPKDTLMISRTPEVTCVVVDVSHEDPEVKFNWYVDGVEVHNAKTKPREEQYNSTYRVVSVLTVLHQDWLNGKEYKCKVSNDALPMPIEETISKAKGQPREPQVYTLPPSRCELTKNQVSLSCAVKGFYPSDIAVEWESNGQPENNYKTTPPVLDSDGSFFLVSKLTVDKSRWQQGNVFSCSVMHEALHNHYTQKSLSLSP light: DIQMTQSPSSLSASVGDRVTITCRASQDIHKYIAWYQQKPGQAPRLLIQYTSTLQPGVPSRFSGSGSGTDYTFTISSLQPEDIATYYCLQYEQLRTFGGGTKVEIKRTVAAPSVFIFPPSDEQLKSGTASVVCLLNNFYPREAKVQWKVDNALQSGNSQESVTEQDSKDSTYSLSSTLTLSKADYEKHKVYACEVTHQGLSSPVTKSFNRGEC
1.2	1.1	1	1.9	1.6	H240-Kn061/H240-Hl071/L73-k0 variant with L235F introduced into H chain H240-Hl071 (antibody, human IgG1, kappa, Point variant of the heterodimerized anti-epiregulin IgG1 template; also called H240-Hl071 L235F) heavy 1: QDQLVQSGAEVKKPGASVKVSCKASGFNIKDTYIQWVRQAPGQGLEWMGRIDPLRKQTKYREKFEGRVTITADTSTNTAYMELSSLRSEDTAVYYCVRSGREFDYWGQGTLVTVSSASTKGPSVFPLAPSSKSTSGGTAALGCLVKDYFPEPVTVSWNSGALTSGVHTFPAVLQSSGLYSLSSVVTVPSSSLGTQTYICNVNHKPSNTKVDKKVEPKSCDKTHTCPPCPAPEYYWGPSVFLFPPKPKDTLMISRTPEVTCVVVDVSDEDPEVKFNWYVDGVEVHNAKTKPREEQYNATYRVVSVLTVLHQDWLNGKEYKCKVSNKALPAPIEKTISKAKGQPREPQVCTLPPSRDELTKNQVSLWCLVKGFYPSDIAVEWESNGQPENNYKTTPPVLDSDGSFFLYSKLTVDKSRWQQGNVFSCSVMHEALHNHYTQKSLSLSP heavy 2: QDQLVQSGAEVKKPGASVKVSCKASGFNIKDTYIQWVRQAPGQGLEWMGRIDPLRKQTKYREKFEGRVTITADTSTNTAYMELSSLRSEDTAVYYCVRSGREFDYWGQGTLVTVSSASTKGPSVFPLAPSSKSTSGGTAALGCLVKDYFPEPVTVSWNSGALTSGVHTFPAVLQSSGLYSLSSVVTVPSSSLGTQTYICNVNHKPSNTKVDKKVEPKSCDKTHTCPPCPAPELFGGPSVFLFPPKPKDTLMISRTPEVTCVVVDVSHEDPEVKFNWYVDGVEVHNAKTKPREEQYNSTYRVVSVLTVLHQDWLNGKEYKCKVSNDALPMPIEETISKAKGQPREPQVYTLPPSRCELTKNQVSLSCAVKGFYPSDIAVEWESNGQPENNYKTTPPVLDSDGSFFLVSKLTVDKSRWQQGNVFSCSVMHEALHNHYTQKSLSLSP light: DIQMTQSPSSLSASVGDRVTITCRASQDIHKYIAWYQQKPGQAPRLLIQYTSTLQPGVPSRFSGSGSGTDYTFTISSLQPEDIATYYCLQYEQLRTFGGGTKVEIKRTVAAPSVFIFPPSDEQLKSGTASVVCLLNNFYPREAKVQWKVDNALQSGNSQESVTEQDSKDSTYSLSSTLTLSKADYEKHKVYACEVTHQGLSSPVTKSFNRGEC
1.3	1.1	0.9	1.3	1.3	H240-Kn061/H240-Hl071/L73-k0 variant with F241M introduced into H chain H240-Hl071 (antibody, human IgG1, kappa, Point variant of the heterodimerized anti-epiregulin IgG1 template; also called H240-Hl071 F241M) heavy 1: QDQLVQSGAEVKKPGASVKVSCKASGFNIKDTYIQWVRQAPGQGLEWMGRIDPLRKQTKYREKFEGRVTITADTSTNTAYMELSSLRSEDTAVYYCVRSGREFDYWGQGTLVTVSSASTKGPSVFPLAPSSKSTSGGTAALGCLVKDYFPEPVTVSWNSGALTSGVHTFPAVLQSSGLYSLSSVVTVPSSSLGTQTYICNVNHKPSNTKVDKKVEPKSCDKTHTCPPCPAPEYYWGPSVFLFPPKPKDTLMISRTPEVTCVVVDVSDEDPEVKFNWYVDGVEVHNAKTKPREEQYNATYRVVSVLTVLHQDWLNGKEYKCKVSNKALPAPIEKTISKAKGQPREPQVCTLPPSRDELTKNQVSLWCLVKGFYPSDIAVEWESNGQPENNYKTTPPVLDSDGSFFLYSKLTVDKSRWQQGNVFSCSVMHEALHNHYTQKSLSLSP heavy 2: QDQLVQSGAEVKKPGASVKVSCKASGFNIKDTYIQWVRQAPGQGLEWMGRIDPLRKQTKYREKFEGRVTITADTSTNTAYMELSSLRSEDTAVYYCVRSGREFDYWGQGTLVTVSSASTKGPSVFPLAPSSKSTSGGTAALGCLVKDYFPEPVTVSWNSGALTSGVHTFPAVLQSSGLYSLSSVVTVPSSSLGTQTYICNVNHKPSNTKVDKKVEPKSCDKTHTCPPCPAPELLGGPSVMLFPPKPKDTLMISRTPEVTCVVVDVSHEDPEVKFNWYVDGVEVHNAKTKPREEQYNSTYRVVSVLTVLHQDWLNGKEYKCKVSNDALPMPIEETISKAKGQPREPQVYTLPPSRCELTKNQVSLSCAVKGFYPSDIAVEWESNGQPENNYKTTPPVLDSDGSFFLVSKLTVDKSRWQQGNVFSCSVMHEALHNHYTQKSLSLSP light: DIQMTQSPSSLSASVGDRVTITCRASQDIHKYIAWYQQKPGQAPRLLIQYTSTLQPGVPSRFSGSGSGTDYTFTISSLQPEDIATYYCLQYEQLRTFGGGTKVEIKRTVAAPSVFIFPPSDEQLKSGTASVVCLLNNFYPREAKVQWKVDNALQSGNSQESVTEQDSKDSTYSLSSTLTLSKADYEKHKVYACEVTHQGLSSPVTKSFNRGEC
1	1.2	1	1.3	1.7	H240-Kn061/H240-Hl071/L73-k0 variant with V240A introduced into H chain H240-Hl071 (antibody, human IgG1, kappa, Point variant of the heterodimerized anti-epiregulin IgG1 template; also called H240-Hl071 V240A) heavy 1: QDQLVQSGAEVKKPGASVKVSCKASGFNIKDTYIQWVRQAPGQGLEWMGRIDPLRKQTKYREKFEGRVTITADTSTNTAYMELSSLRSEDTAVYYCVRSGREFDYWGQGTLVTVSSASTKGPSVFPLAPSSKSTSGGTAALGCLVKDYFPEPVTVSWNSGALTSGVHTFPAVLQSSGLYSLSSVVTVPSSSLGTQTYICNVNHKPSNTKVDKKVEPKSCDKTHTCPPCPAPEYYWGPSVFLFPPKPKDTLMISRTPEVTCVVVDVSDEDPEVKFNWYVDGVEVHNAKTKPREEQYNATYRVVSVLTVLHQDWLNGKEYKCKVSNKALPAPIEKTISKAKGQPREPQVCTLPPSRDELTKNQVSLWCLVKGFYPSDIAVEWESNGQPENNYKTTPPVLDSDGSFFLYSKLTVDKSRWQQGNVFSCSVMHEALHNHYTQKSLSLSP heavy 2: QDQLVQSGAEVKKPGASVKVSCKASGFNIKDTYIQWVRQAPGQGLEWMGRIDPLRKQTKYREKFEGRVTITADTSTNTAYMELSSLRSEDTAVYYCVRSGREFDYWGQGTLVTVSSASTKGPSVFPLAPSSKSTSGGTAALGCLVKDYFPEPVTVSWNSGALTSGVHTFPAVLQSSGLYSLSSVVTVPSSSLGTQTYICNVNHKPSNTKVDKKVEPKSCDKTHTCPPCPAPELLGGPSAFLFPPKPKDTLMISRTPEVTCVVVDVSHEDPEVKFNWYVDGVEVHNAKTKPREEQYNSTYRVVSVLTVLHQDWLNGKEYKCKVSNDALPMPIEETISKAKGQPREPQVYTLPPSRCELTKNQVSLSCAVKGFYPSDIAVEWESNGQPENNYKTTPPVLDSDGSFFLVSKLTVDKSRWQQGNVFSCSVMHEALHNHYTQKSLSLSP light: DIQMTQSPSSLSASVGDRVTITCRASQDIHKYIAWYQQKPGQAPRLLIQYTSTLQPGVPSRFSGSGSGTDYTFTISSLQPEDIATYYCLQYEQLRTFGGGTKVEIKRTVAAPSVFIFPPSDEQLKSGTASVVCLLNNFYPREAKVQWKVDNALQSGNSQESVTEQDSKDSTYSLSSTLTLSKADYEKHKVYACEVTHQGLSSPVTKSFNRGEC
